Reference: article PMC11993684, “Fibromodulin selectively accelerates myofibroblast apoptosis in cutaneous wounds by enhancing interleukin 1β signaling” (Nature Communications, 2025)

T1: recombinant human fibromodulin (FMOD) with C-terminal His-tag (human, UniProt Q06828 19-376)
T1 chain: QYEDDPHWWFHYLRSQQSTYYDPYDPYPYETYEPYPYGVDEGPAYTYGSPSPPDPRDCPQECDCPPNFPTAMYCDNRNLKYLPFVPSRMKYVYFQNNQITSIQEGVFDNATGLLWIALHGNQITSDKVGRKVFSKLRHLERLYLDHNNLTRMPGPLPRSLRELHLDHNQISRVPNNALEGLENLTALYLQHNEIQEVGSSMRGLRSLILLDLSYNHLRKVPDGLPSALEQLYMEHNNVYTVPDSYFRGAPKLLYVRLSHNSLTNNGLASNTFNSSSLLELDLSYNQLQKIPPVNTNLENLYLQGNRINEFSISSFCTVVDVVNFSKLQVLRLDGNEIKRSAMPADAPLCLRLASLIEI

B1: recombinant IL1R1 (R&D Systems 269-1R-100/CF) (receptor, human, UniProt P14778 18-336, looked up)
chain: LEADKCKEREEKIILVSSANEIDVRPCPLNPNEHKGTITWYKDDSKTPVSTEQASRIHQHKEKLWFVPAKVEDSGHYYCVVRNSSYCLRIKISAKFVENEPNLCYNAQAIFKQKLPVAGDGGLVCPYMEFFKNENNELPKLQWYKDCKPLLLDNIHFSGVKDRLIVMNVAEKHRGNYTCHASYTYLGKQYPITRVIEFITLEENKPTRPVIVSPANETMEVDLGSQIQLICNVTGQLSDIAYWKWNGSVIDEDDPVLGEDYYSVENPANKRRSTLITVLNISEIESRFYKHPFTCFAKNTHGIDAAYIQLIYPVTNFQK
notes: interleukin 1 receptor type 1, recombinant, His-tag-free, 55 kDa on SDS-PAGE, carrier-free; also called interleukin 1 receptor type 1; source: bought: R&D Systems (carrier-free)
B2: recombinant human fibromodulin (FMOD) with C-terminal His-tag (natural protein, UniProt Q06828 19-376, looked up)
chain: T1 chain
notes: fibromodulin, human; cDNA of a human FMOD transcript (NM_002023) subcloned into pSecTag2A; secreted into the culture supernatant of CHO-K1 cells; Proteoglycan made in CHO cells; also called His-tagged FMOD; not shown: His-tag, C-terminal, kept

What was measured:
[1] = target: T1, recombinant human fibromodulin (FMOD) …; assay: SPR
[2] = target: B2; assay: SPR; Biacore 3000; FMOD immobilised on CM5 chip by amine coupling; IL1R1 or IL1RAP in HBS-EP pH 7.4 (0.15 M NaCl, 10 mM HEPES, 3 mM EDTA, 0.005% polysorbate 20), 50 μL/minute; double referencing; Scrubber 2.0; settings: both partners purified
[3] = target: T2, IL1β-IL1R1-IL1RAP ternary complex formed in vitro from recombinant proteins (human, UniProt P01584 117-269; P14778 18-336; Q9NPH3 21-367); assay: pull-down; Pierce His Protein Interaction Pull-Down Kit; 150 μg His-tagged FMOD immobilised as bait; His-tag-free 100 μg IL1β, 100 μg IL1R1, 100 μg IL1RAP, or the complex formed beforehand (100 μg IL1β, 50 μg IL1R1, 50 μg IL1RAP, 4 °C overnight) as prey; eluate by SDS-PAGE and Western blotting; settings: both partners purified
T2 construct: interleukin 1 beta, human, recombinant, His-tag-free, 17 kDa on SDS-PAGE; as m2; interleukin 1 receptor type 1, recombinant, His-tag-free, 55 kDa on SDS-PAGE; as m3; interleukin 1 receptor accessory protein, recombinant, His-tag-free, 70-75 kDa on SDS-PAGE; as m4; See the notes of m3 and m4 on the bought constructs; also called IL1β-IL1R1-IL1RAP complex; IL1β-IL1R1-ILRAP ternary complex; source: …

koff [1] [s⁻¹]	Kd [2] [µM]	binding result [3]	Binder
0.02	0.43	–	B1
–	–	binds	B2
